For two substances, Kd results are on record in article PMC5103180.

Experiment [1] concerns the target ATS‐C fragment of PfEMP1 variant PFL0030c (VAR2CSA) (Plasmodium falciparum). Nature of the experiment: fluorescence polarisation; 500 nM 5-FAM-labelled ATS-C variants titrated with unlabelled PFE1605w PHIST domain; 20°C; 50 mM NaCl, 20 mM Na2HPO4 pH 6.5; single-site model.
In experiment [2] the target is PFE1605w‐C (Plasmodium falciparum). Nature of the experiment: fluorescence polarisation; 0.5 μM 5-FAM-labelled PFE1605w-C titrated with unlabelled band 3 cytosolic domain (or BSA as negative control); 20°C; 50 mM NaCl, 20 mM Na2HPO4 pH 7.0; single-site model. For orientation: In fluorescence polarisation assays a small probe gives low polarisation when free and higher when bound to something large.

For the substance “PFE1605w PHIST domain (domain or fragment)”, the dissociation constant Kd (in general, a measure of binding affinity in units of concentration) in experiment [1] was 90 µM. In other words, the double-digit micromolar range.
With “band 3 cytosolic domain (from UniProt P02730 1-379) (domain or fragment)”, in experiment [2], the Kd was 1.5 µM.
